Source: the supplement of paper PMC9428881
± gives the standard error.

Experiment: background-corrected fluorescence of 3'-dye-labeled ssDNA relative to brightest sequence (3'-GCGCG) (fraction); higher = brighter dye fluorescence (less quenching)
In short: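 Single-stranded DNA was built on glass slides by light-directed phosphoramidite synthesis, ending in a 3' Cy3 or Cy5 dye beside each of 1024 permuted pentamers. Arrays were washed in acetonitrile for 2 h at r.t., then scanned at 532 or 635 nm before and after overnight ethylenediamine/ethanol deprotection. Each value averages 10 features per array and at least 3 syntheses. Fluorescence, corrected by subtracting unlabeled-oligo background, is scaled to the brightest sequence.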

TTTTTTCATGCTCATGCTGCTTTTTTTTTTTTTTTGAGAA [AAGAG]
background-corrected fluorescence (dye: Cy3 (3' terminal)): 0.645 ± 0.032 | background-corrected fluorescence (dye: Cy5 (3' terminal)): 0.513 ± 0.026

TTTTTTCATGCTGAGCAGCATTTTTTTTTTTTTTTGACTT [TTCAG]
background-corrected fluorescence (dye: Cy3 (3' terminal)): 0.501 ± 0.016 | background-corrected fluorescence (dye: Cy5 (3' terminal)): 0.401 ± 0.021

TTTTTTCATGCTGAGCATCATTTTTTTTTTTTTTTGACTG [GTCAG]
background-corrected fluorescence (dye: Cy3 (3' terminal)): 0.511 ± 0.03 | background-corrected fluorescence (dye: Cy5 (3' terminal)): 0.39 ± 0.032

TTTTTTCATGCTGAGCATGATTTTTTTTTTTTTTTGACTC [CTCAG]
background-corrected fluorescence (dye: Cy3 (3' terminal)): 0.419 ± 0.021 | background-corrected fluorescence (dye: Cy5 (3' terminal)): 0.317 ± 0.028

TTTTTTCATGCTGAGCATGCTTTTTTTTTTTTTTTGACTA [ATCAG]
background-corrected fluorescence (dye: Cy3 (3' terminal)): 0.491 ± 0.021 | background-corrected fluorescence (dye: Cy5 (3' terminal)): 0.416 ± 0.029

TTTTTTCATGCTGATCAGCATTTTTTTTTTTTTTTGACGT [TGCAG]
background-corrected fluorescence (dye: Cy3 (3' terminal)): 0.601 ± 0.016 | background-corrected fluorescence (dye: Cy5 (3' terminal)): 0.474 ± 0.028

TTTTTTCATGCTGATCATCATTTTTTTTTTTTTTTGACGG [GGCAG]
background-corrected fluorescence (dye: Cy3 (3' terminal)): 0.65 ± 0.026 | background-corrected fluorescence (dye: Cy5 (3' terminal)): 0.585 ± 0.076

TTTTTTCATGCTGATCATGATTTTTTTTTTTTTTTGACGC [CGCAG]
background-corrected fluorescence (dye: Cy3 (3' terminal)): 0.577 ± 0.062 | background-corrected fluorescence (dye: Cy5 (3' terminal)): 0.462 ± 0.065

TTTTTTCATGCTGATCATGCTTTTTTTTTTTTTTTGACGA [AGCAG]
background-corrected fluorescence (dye: Cy3 (3' terminal)): 0.642 ± 0.026 | background-corrected fluorescence (dye: Cy5 (3' terminal)): 0.52 ± 0.025

TTTTTTCATGCTGATGAGCATTTTTTTTTTTTTTTGACCT [TCCAG]
background-corrected fluorescence (dye: Cy3 (3' terminal)): 0.453 ± 0.026 | background-corrected fluorescence (dye: Cy5 (3' terminal)): 0.34 ± 0.026

TTTTTTCATGCTGATGATCATTTTTTTTTTTTTTTGACCG [GCCAG]
background-corrected fluorescence (dye: Cy3 (3' terminal)): 0.524 ± 0.032 | background-corrected fluorescence (dye: Cy5 (3' terminal)): 0.428 ± 0.043

TTTTTTCATGCTGATGATGATTTTTTTTTTTTTTTGACCC [CCCAG]
background-corrected fluorescence (dye: Cy3 (3' terminal)): 0.387 ± 0.0053 | background-corrected fluorescence (dye: Cy5 (3' terminal)): 0.282 ± 0.022

TTTTTTCATGCTGATGATGCTTTTTTTTTTTTTTTGACCA [ACCAG]
background-corrected fluorescence (dye: Cy3 (3' terminal)): 0.499 ± 0.022 | background-corrected fluorescence (dye: Cy5 (3' terminal)): 0.394 ± 0.024

TTTTTTCATGCTGATGCGCATTTTTTTTTTTTTTTGACAT [TACAG]
background-corrected fluorescence (dye: Cy3 (3' terminal)): 0.536 ± 0.019 | background-corrected fluorescence (dye: Cy5 (3' terminal)): 0.388 ± 0.025

TTTTTTCATGCTGATGCTCATTTTTTTTTTTTTTTGACAG
background-corrected fluorescence (dye: Cy3 (3' terminal)): 0.547 ± 0.023 | background-corrected fluorescence (dye: Cy5 (3' terminal)): 0.423 ± 0.036

TTTTTTCATGCTGATGCTGATTTTTTTTTTTTTTTGACAC [CACAG]
background-corrected fluorescence (dye: Cy3 (3' terminal)): 0.42 ± 0.0058 | background-corrected fluorescence (dye: Cy5 (3' terminal)): 0.321 ± 0.044

TTTTTTCATGCTGATGCTGCTTTTTTTTTTTTTTTGACAA [AACAG]
background-corrected fluorescence (dye: Cy3 (3' terminal)): 0.537 ± 0.032 | background-corrected fluorescence (dye: Cy5 (3' terminal)): 0.415 ± 0.022

TTTTTTCATGCTGCGCAGCATTTTTTTTTTTTTTTGAATT [TTAAG]
background-corrected fluorescence (dye: Cy3 (3' terminal)): 0.5465 ± 0.0052 | background-corrected fluorescence (dye: Cy5 (3' terminal)): 0.382 ± 0.03

TTTTTTCATGCTGCGCATCATTTTTTTTTTTTTTTGAATG [GTAAG]
background-corrected fluorescence (dye: Cy3 (3' terminal)): 0.489 ± 0.022 | background-corrected fluorescence (dye: Cy5 (3' terminal)): 0.367 ± 0.029

TTTTTTCATGCTGCGCATGATTTTTTTTTTTTTTTGAATC [CTAAG]
background-corrected fluorescence (dye: Cy3 (3' terminal)): 0.433 ± 0.031 | background-corrected fluorescence (dye: Cy5 (3' terminal)): 0.311 ± 0.025

TTTTTTCATGCTGCGCATGCTTTTTTTTTTTTTTTGAATA [ATAAG]
background-corrected fluorescence (dye: Cy3 (3' terminal)): 0.553 ± 0.025 | background-corrected fluorescence (dye: Cy5 (3' terminal)): 0.42 ± 0.053

TTTTTTCATGCTGCTCAGCATTTTTTTTTTTTTTTGAAGT
background-corrected fluorescence (dye: Cy3 (3' terminal)): 0.661 ± 0.012 | background-corrected fluorescence (dye: Cy5 (3' terminal)): 0.529 ± 0.056

TTTTTTCATGCTGCTCATCATTTTTTTTTTTTTTTGAAGG [GGAAG]
background-corrected fluorescence (dye: Cy3 (3' terminal)): 0.607 ± 0.026 | background-corrected fluorescence (dye: Cy5 (3' terminal)): 0.512 ± 0.025

TTTTTTCATGCTGCTCATGATTTTTTTTTTTTTTTGAAGC [CGAAG]
background-corrected fluorescence (dye: Cy3 (3' terminal)): 0.547 ± 0.024 | background-corrected fluorescence (dye: Cy5 (3' terminal)): 0.397 ± 0.027

TTTTTTCATGCTGCTCATGCTTTTTTTTTTTTTTTGAAGA [AGAAG]
background-corrected fluorescence (dye: Cy3 (3' terminal)): 0.6356 ± 0.0052 | background-corrected fluorescence (dye: Cy5 (3' terminal)): 0.582 ± 0.029

TTTTTTCATGCTGCTGAGCATTTTTTTTTTTTTTTGAACT [TCAAG]
background-corrected fluorescence (dye: Cy3 (3' terminal)): 0.5 ± 0.016 | background-corrected fluorescence (dye: Cy5 (3' terminal)): 0.36 ± 0.025

TTTTTTCATGCTGCTGATCATTTTTTTTTTTTTTTGAACG [GCAAG]
background-corrected fluorescence (dye: Cy3 (3' terminal)): 0.541 ± 0.028 | background-corrected fluorescence (dye: Cy5 (3' terminal)): 0.404 ± 0.023

TTTTTTCATGCTGCTGATGATTTTTTTTTTTTTTTGAACC [CCAAG]
background-corrected fluorescence (dye: Cy3 (3' terminal)): 0.41 ± 0.033 | background-corrected fluorescence (dye: Cy5 (3' terminal)): 0.288 ± 0.027
